We go through 42 molecules from publication PMC9352680, “A comprehensive thermodynamic model for RNA binding by the Saccharomyces cerevisiae Pumilio protein PUF4”.

Substitutions are numbered along the chain they refer to. Names and notes keep the numbering of the source.

To fix the notation:
T1: PUF4 RNA-binding domain (Saccharomyces cerevisiae, UniProt P25339 537-888)
T1 sequence: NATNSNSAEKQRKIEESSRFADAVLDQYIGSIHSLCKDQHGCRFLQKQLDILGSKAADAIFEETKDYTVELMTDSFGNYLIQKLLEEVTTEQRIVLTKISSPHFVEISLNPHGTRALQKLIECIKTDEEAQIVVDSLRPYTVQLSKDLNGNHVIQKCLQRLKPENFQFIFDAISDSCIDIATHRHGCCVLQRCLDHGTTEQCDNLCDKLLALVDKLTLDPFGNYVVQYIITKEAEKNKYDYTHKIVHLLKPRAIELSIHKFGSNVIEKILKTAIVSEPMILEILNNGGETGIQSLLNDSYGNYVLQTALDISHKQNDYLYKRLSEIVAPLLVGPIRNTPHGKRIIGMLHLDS

B1: Ib_S1_P4E.1_K4.1_C4.1_H4.1_A4.1_[A6T]_F4.1_[T8G]_T4.1 (ssRNA)
RNA: UCUCUUUGUAUUUGAUCUCUU
B2: Ic_S4_P4E.1_K4.1_C4.1_H4.1_A4.1_[T5C]_[A6C]_F4.1_[T8A]_T4.1 (ssRNA)
RNA: UUUGACAACUGAUCGUUCUUUCUUGUACCUAAUUCUUUCUCGAUCAGUUGUCUUU
B3: Ic_S4_P4E.1_K4.1_C4.1_H4.1_A4.1_[T5C]_[A6T]_[T7A]_F4.1_[T8C]_[A9T]_T4.1 (ssRNA)
RNA: B2 RNA with C29U, U30A, A31C, A32U
B4: Ic_S4_P4E.1_K4.1_C4.1_H4.1_A4.1_[T5C]_[A6T]_[T7A]_F4.1_[T8C]_T4.1 (ssRNA)
RNA: B2 RNA with C29U, U30A, A31C
B5: Ic_S4_P4E.1_K4.1_C4.1_H4.1_A4.1_[T5C]_[T7G]_F4.1_[T8C]_[A9C]_T4.1 (ssRNA)
RNA: B2 RNA with C29A, U30G, A31C, A32C
B6: Ic_S4_P4E.1_K4.1_C4.1_H4.1_A4.1_[T5C]_[T7C]_F4.1_[A9T]_T4.1 (ssRNA)
RNA: B2 RNA with C29A, U30C, A31U, A32U
B7: Ic_S4_P4E.1_K4.1_C4.1_H4.1_A4.1_[T5C]_[T7C]_F4.1_[T8C]_[A9G]_T4.1 (ssRNA)
RNA: B2 RNA with C29A, U30C, A31C, A32G
B8: Ic_S4_P4E.1_K4.1_C4.1_H4.1_A4.1_[T5C]_[T7G]_F4.1_[A9G]_T4.1 (ssRNA)
RNA: B2 RNA with C29A, U30G, A31U, A32G
B9: Ic_S4_P4E.1_K4.1_C4.1_H4.1_A4.1_[T5C]_[A6T]_[T7C]_F4.1_[T8G]_[A9T]_T4.1 (ssRNA)
RNA: B2 RNA with C29U, U30C, A31G, A32U
B10: Ic_S4_P4E.1_K4.1_C4.1_H4.1_A4.1_[T5C]_[A6T]_[T7A]_F4.1_[T8A]_T4.1 (ssRNA)
RNA: B2 RNA with C29U, U30A
B11: Ic_S4_P4E.1_K4.1_C4.1_H4.1_A4.1_[T5C]_[A6T]_F4.1_[T8C]_[A9T]_T4.1 (ssRNA)
RNA: B2 RNA with C29U, A31C, A32U
B12: Ic_S4_P4E.1_K4.1_C4.1_H4.1_A4.1_[T5C]_[A6T]_[T7G]_F4.1_[T8C]_[A9G]_T4.1 (ssRNA)
RNA: B2 RNA with C29U, U30G, A31C, A32G
B13: Ic_S4_P4E.1_K4.1_C4.1_H4.1_A4.1_[T5C]_[A6T]_[T7A]_F4.1_[A9C]_T4.1 (ssRNA)
RNA: B2 RNA with C29U, U30A, A31U, A32C
B14: Ic_S4_P4E.1_K4.1_C4.1_H4.1_A4.1_[T5C]_[T7C]_F4.1_[T8A]_T4.1 (ssRNA)
RNA: B2 RNA with C29A, U30C
B15: Ic_S4_P4E.1_K4.1_C4.1_H4.1_A4.1_[T5C]_[A6T]_[T7G]_F4.1_[T8G]_[A9T]_T4.1 (ssRNA)
RNA: B2 RNA with C29U, U30G, A31G, A32U
B16: Ic_S4_P4E.1_K4.1_C4.1_H4.1_A4.1_[T5C]_[A6T]_[T7C]_F4.1_[T8A]_[A9G]_T4.1 (ssRNA)
RNA: B2 RNA with C29U, U30C, A32G
B17: Ic_S4_P4E.1_K4.1_C4.1_H4.1_A4.1_[T5C]_[T7A]_F4.1_[T8G]_[A9C]_T4.1 (ssRNA)
RNA: B2 RNA with C29A, U30A, A31G, A32C
B18: Ic_S4_P4E.1_K4.1_C4.1_H4.1_A4.1_[T5C]_[A6T]_[T7G]_F4.1_[A9T]_T4.1 (ssRNA)
RNA: B2 RNA with C29U, U30G, A31U, A32U
B19: Ic_S4_P4E.1_K4.1_C4.1_H4.1_A4.1_[T5C]_[A6T]_[T7A]_F4.1_[T8A]_[A9C]_T4.1 (ssRNA)
RNA: B2 RNA with C29U, U30A, A32C
B20: Ic_S4_P4E.1_K4.1_C4.1_H4.1_A4.1_[T5C]_[A6T]_[T7C]_F4.1_[A9C]_T4.1 (ssRNA)
RNA: B2 RNA with C29U, U30C, A31U, A32C
B21: Ic_S4_P4E.1_K4.1_C4.1_H4.1_A4.1_[T5C]_[A6T]_F4.1_[T8C]_[A9C]_T4.1 (ssRNA)
RNA: B2 RNA with C29U, A31C, A32C
B22: Ic_S4_P4E.1_K4.1_C4.1_H4.1_A4.1_[T5C]_[A6T]_F4.1_[T8A]_[A9C]_T4.1 (ssRNA)
RNA: B2 RNA with C29U, A32C
B23: Ic_S4_P4E.1_K4.1_C4.1_H4.1_A4.1_[T5C]_[A6T]_[T7A]_F4.1_[T8C]_[A9G]_T4.1 (ssRNA)
RNA: B2 RNA with C29U, U30A, A31C, A32G
B24: Ic_S4_P4E.1_K4.1_C4.1_H4.1_A4.1_[T5C]_[A6T]_[T7G]_F4.1_[T8C]_T4.1 (ssRNA)
RNA: B2 RNA with C29U, U30G, A31C
B25: Ic_S4_P4E.1_K4.1_C4.1_H4.1_A4.1_[T5C]_[T7C]_F4.1_[T8G]_[A9C]_T4.1 (ssRNA)
RNA: B2 RNA with C29A, U30C, A31G, A32C
B26: Ic_S4_P4E.1_K4.1_C4.1_H4.1_A4.1_[T5C]_[T7G]_F4.1_[T8C]_[A9T]_T4.1 (ssRNA)
RNA: B2 RNA with C29A, U30G, A31C, A32U
B27: Ic_S4_P4E.1_K4.1_C4.1_H4.1_A4.1_[T5C]_[T7G]_F4.1_[A9C]_T4.1 (ssRNA)
RNA: B2 RNA with C29A, U30G, A31U, A32C
B28: Ic_S4_P4E.1_K4.1_C4.1_H4.1_A4.1_[T5C]_[T7C]_F4.1_[T8A]_[A9G]_T4.1 (ssRNA)
RNA: B2 RNA with C29A, U30C, A32G
B29: Ic_S4_P4E.1_K4.1_C4.1_H4.1_A4.1_[T5C]_[T7A]_F4.1_[T8C]_[A9T]_T4.1 (ssRNA)
RNA: B2 RNA with C29A, U30A, A31C, A32U
B30: Ic_S4_P4E.1_K4.1_C4.1_H4.1_A4.1_[T5C]_[T7A]_F4.1_[T8C]_[A9C]_T4.1 (ssRNA)
RNA: B2 RNA with C29A, U30A, A31C, A32C
B31: Ic_S4_P4E.1_K4.1_C4.1_H4.1_A4.1_[T5C]_[T7G]_F4.1_[T8C]_T4.1 (ssRNA)
RNA: B2 RNA with C29A, U30G, A31C
B32: Ic_S4_P4E.1_K4.1_C4.1_H4.1_A4.1_[T5C]_[A6T]_[T7C]_F4.1_[T8A]_T4.1 (ssRNA)
RNA: B2 RNA with C29U, U30C
B33: Ic_S4_P4E.1_K4.1_C4.1_H4.1_A4.1_[T5C]_[A6T]_[T7G]_F4.1_T4.1 (ssRNA)
RNA: B2 RNA with C29U, U30G, A31U
B34: Ic_S4_P4E.1_K4.1_C4.1_H4.1_A4.1_[T5C]_[A6C]_F4.1_[A9T]_T4.1 (ssRNA)
RNA: B2 RNA with A31U, A32U
B35: Ic_S4_P4E.1_K4.1_C4.1_H4.1_A4.1_[T5C]_[A6T]_F4.1_[A9C]_T4.1 (ssRNA)
RNA: B2 RNA with C29U, A31U, A32C
B36: Ic_S4_P4E.1_K4.1_C4.1_H4.1_A4.1_[T5C]_[A6T]_[T7C]_F4.1_[T8C]_[A9C]_T4.1 (ssRNA)
RNA: B2 RNA with C29U, U30C, A31C, A32C
B37: Ic_S4_P4E.1_K4.1_C4.1_H4.1_A4.1_[T5C]_[A6C]_F4.1_T4.1 (ssRNA)
RNA: B2 RNA with A31U
B38: Ic_S4_P4E.1_K4.1_C4.1_H4.1_A4.1_[T5C]_[A6T]_[T7C]_F4.1_[T8C]_[A9G]_T4.1 (ssRNA)
RNA: B2 RNA with C29U, U30C, A31C, A32G
B39: Ic_S4_P4E.1_K4.1_C4.1_H4.1_A4.1_[T5C]_[A6T]_F4.1_[A9T]_T4.1 (ssRNA)
RNA: B2 RNA with C29U, A31U, A32U
B40: Ic_S1_P4E.1_K4.1_C4.1_H4.1_A4.1_[T5C]_F4.1_[T8A]_T4.1 (ssRNA)
RNA: UCUCUUUGUACAUAAUCUCUU
B41: Ib_S1_P4E.1_K4.1_C4.1_H4.1_A4.1_[T5A]_F4.1_[T8C]_T4.1 (ssRNA)
RNA: UCUCUUUGUAAAUCAUCUCUU
B42: Ic_S1_P4E.1_K4.1_C4.1_H4.1_A4.1_[A6C]_F4.1_[T8G]_T4.1 (ssRNA)
RNA: UCUCUUUGUAUCUGAUCUCUU

By Kd is commonly meant the equilibrium constant for the complex coming apart. Low readings indicate higher affinity, high ones lower affinity.

The target of the data set is T1, PUF4 RNA-binding domain. As to the kind of experiment: Mg; RNA-MaP; 20 mM Na-HEPES pH 7.4, 30 mM KOAc, 0.75 mM MgCl2, 0.1% Tween-20, 5% glycerol, 0.1 mg/mL BSA, 2 mM DTT; 25 C; 0.0125-409.6 nM protein. As to conditions: tags: N-His6-TEV cleaved; C-SNAP kept, Cy3B-labelled; label: tethered on chip by stalled RNA polymerase.
For the molecule B1, the Kd came to 458 nM.

The molecule B2 returned a dissociation constant Kd of 15.7 nM.

In the case of B3, the affinity, expressed as Kd, was 58.3 nM.

As to B4, binding was put at a Kd of 279 nM.

The molecule B5 registered a Kd of 89.4 nM.

For B6, the Kd was 4.37 nM.

Turning to B7, the Kd is 72 nM.

Regarding B8, the dissociation constant (Kd) worked out at 9.03 nM.

In the case of B9, the Kd was 138 nM.

In turn, B10 had a Kd of 21.7 nM.

In turn, B11 had a Kd of 32.5 nM.

Molecule B12 registered a Kd of 916 nM.

B13 returned a Kd of 15.8 nM.

Molecule B14 returned a Kd of 16.9 nM.

Consider B15, for which the Kd is 975 nM.

For B16, binding was put at a Kd of 819 nM.

Take B17: the dissociation constant Kd is 700 nM.

As to B18, the Kd was 54.6 nM.

In the case of B19, the dissociation constant Kd was determined as 404 nM.

B20 had a Kd of 23.3 nM.

Regarding B21, the equilibrium dissociation constant (Kd) came to 94.5 nM.

As to B22, the Kd was determined as 108 nM.

Molecule B23 came in with an equilibrium dissociation constant (Kd) of 563 nM.

B24 had a dissociation constant (Kd) of 786 nM.

B25 displayed a Kd of 90.1 nM.

The molecule B26 had a dissociation constant Kd of 55.1 nM.

In turn, B27 registered a Kd of 22.9 nM.

Turning to B28, the affinity, expressed as Kd, was 270 nM.

As to B29, the Kd stood at 39.4 nM.

In turn, B30 came in with a dissociation constant Kd of 99.9 nM.

The molecule B31 yielded a Kd of 69.5 nM.

B32 had a Kd of 96.2 nM.

In turn, B33 showed a Kd of 3.86 nM.

Turning to B34, the equilibrium dissociation constant (Kd) amounted to 10.8 nM.

B35 yielded a Kd of 13.1 nM.

With B36, the Kd worked out at 394 nM.

On to B37, for which the equilibrium dissociation constant (Kd) was found to be 1.74 nM.

The molecule B38 registered a Kd of 552 nM.

In the case of B39, the Kd was 6.37 nM.

For B40, the Kd stood at 6.09 nM.

Molecule B41 yielded a dissociation constant Kd of 39.1 nM.

On to B42, for which the affinity, expressed as Kd, was 76.5 nM.
